Source: patent US11903969

Target: CD19 on CD19+ cells (Nalm6-GL, Raji, donor B cells) (UniProt P15391)
Experiment: cell-based or functional assay

UniProt P15391, sequence (P15391 20-556 limits assumed): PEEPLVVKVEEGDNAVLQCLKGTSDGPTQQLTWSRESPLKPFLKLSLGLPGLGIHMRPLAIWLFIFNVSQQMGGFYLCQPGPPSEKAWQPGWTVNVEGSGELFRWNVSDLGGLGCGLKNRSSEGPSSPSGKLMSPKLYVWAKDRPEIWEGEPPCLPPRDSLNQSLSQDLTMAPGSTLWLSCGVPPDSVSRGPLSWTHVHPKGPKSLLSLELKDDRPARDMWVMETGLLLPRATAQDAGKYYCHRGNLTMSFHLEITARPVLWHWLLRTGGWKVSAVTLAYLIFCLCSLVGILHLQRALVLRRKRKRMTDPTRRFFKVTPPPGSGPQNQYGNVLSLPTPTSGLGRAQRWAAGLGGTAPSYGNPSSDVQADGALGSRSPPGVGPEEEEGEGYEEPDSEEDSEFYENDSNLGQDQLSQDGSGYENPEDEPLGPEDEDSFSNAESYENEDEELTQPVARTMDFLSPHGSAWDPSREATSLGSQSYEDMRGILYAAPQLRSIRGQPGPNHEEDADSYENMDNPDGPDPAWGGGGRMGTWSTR

Substance: CD19.28.ζ-CAR (CD19-specific chimeric antigen receptor with FMC63 scFv, CD28 hinge, transmembrane and intracellular sequences and CD3ζ intracellular domain) (from UniProt P10747 114-220; P20963 52-164)
- CD19+ cell population (B cells) remaining 24 hours after gene targeting: 2.53%
